Tests used:
MDA-MB-231 = test: Annexin-V staining (flow cytometry); format: cell-based, Human; conditions: 24 h
Method: The cell lines were maintained in DMEM+10% FBS (heat inactivated) at 37° C. with 5% CO2, and 95% humidity. Antibiotics Penicillin (100 U/mL) and Streptomycin (100 μg/mL) were added to the medium.
The stock solution of recombinant lectin having the amino acid sequence of SEQ ID NO. […] Doxorubicin was used as positive control and stock solution was prepared in DMSO.
Cells were counted using hemocytometer and plated in culture plates at the density of 0.4×10^6 cells/well in DMEM+10% FBS in 6-well plates. Cells were incubated overnight to allow the cell recovery and exponential growth. Following overnight incubation, cells were treated with Lectin having the amino acid sequence of SEQ ID NO. 2 in DMEM+0% FBS at concentrations ranging from 2.5 μg/mL to 80 μg/mL. Untreated cells were included as Control group for sample. Cells treated with Doxorubicin were included as Positive Control group. DMSO treated cells were included as control group for Doxorubicin. After treatment, cells were incubated for a time period of 24 h.
Following incubation, the pro-apoptotic effect was estimated using Annexin assay kit as follows: Annexin reagent contains Annexin-V+7-AAD stain, which differentially labels apoptotic cells in different phases. Four populations of cells can be determined from the flow cytometric plots as follows: • a) Upper Left (UL)—7-AAD(+)/Annexin(−) or Necrotic cells • b) Upper Right (UR)—7-AAD(+)/Annexin(+) or Late apoptotic cells • c) Lower Left (LL)—7-AAD(−)/Annexin(−) or Viable/non-apoptotic cells • d) Lower Right (LR)—7-AAD(−)/Annexin(+) or Early apoptotic cells
Cells were gently harvested into pre-labeled sterile centrifuge tubes and centrifuged at 300×g for 5-7 min. Supernatant were discarded and the pellet was resuspended in 200 μl of fresh culture medium.
100 μl of cell suspension was transferred into pre-labeled sterile centrifuge tubes.
100 μl of Annexin-V reagent was added to each tube and incubated for 30 min at RT in dark.
Cells stained for Annexin-V were then transferred into 96-well plates and acquired on flow cytometer (Guava technologies). Percentage of cells in early apoptotic, late apoptotic and necrotic phase were determined.
Fold increase in apoptotic cells (treated with Test Items) was determined as compared to Control (untreated cells).

[1] = tested on: AGS (Human stomach adenocarcinoma); test: Calcein AM cytotoxicity assay; conditions: 48h
Method: (§1) All the cancer cell lines were procured from National Centre for Cell Science, Pune (India). The cell lines were maintained under conditions as described in Table 21 below. The cell lines were sub-cultured by trypsinization followed by splitting the cell suspension into fresh flasks and supplementing with fresh culture medium.
(§2) All the cell lines were grown in specified media at 37° C. with 95% Humidity and […].
(§3) The cells were trypsinized, counted by Trypan blue method in Neuebauer's Chamber and plated in wells of flat bottom 96-well plate (dark walled plate, flat bottom) at the density corresponding to 10×10^3 cells/well/180 μl medium.
(§4) Following overnight incubation, the cells were treated with test item (20 μL) at concentrations ranging from 2.5-80 μg/mL, so that the total volume in each well is 200 μL.
(§5) The cells were incubated with the test items or positive control for a time period of 48h. Following incubation, the cell cytotoxicity was estimated using Calcein AM Cell Viability Assay Kit from R&D systems (Cat No. 4892-010-K).
(§6) Fluorescence was measured at 485 nm (excitation/528 run (emission) spectra using Synergy HT micro plate reader.
(§7) Percentage cytotoxicity wrt untreated cells was calculated using formula:
(§8) Cytotoxicity=[(RFUuntreated−RFUsample)/RFUuntreated]*100
(§9) RFU: relative fluorescence units
(§10) IC50 value was calculated using Graph-Pad Prism version 4.01 software.

[2] = tested on: MCF-10A (Human mammary epithelial cells); test: Calcein AM cytotoxicity assay; conditions: 48h
Method: as §1, §2, §3, §4, §5, §6, §7, §8, §9, §10

[3] = tested on: PA-1 (Human Ovary carcinoma); test: Calcein AM cytotoxicity assay; conditions: 48h
Method: as §1, §2, §3, §4, §5, §6, §7, §8, §9, §10

[4] = tested on: PC-3 (Human Prostate Cancer); test: Calcein AM cytotoxicity assay; conditions: 48h
Method: as §1, §2, §3, §4, §5, §6, §7, §8, §9, §10

[5] = tested on: SiHa (Human cervix squamous cell carcinoma); test: Calcein AM cytotoxicity assay; conditions: 48h
Method: as §1, §2, §3, §4, §5, §6, §7, §8, §9, §10

[6] = tested on: HT-29 (Human Colorectal adenocarcinoma); test: Calcein AM cytotoxicity assay; conditions: 48h
Method: as §1, §2, §3, §4, §5, §6, §7, §8, §9, §10

[7] = tested on: SK-Mel-28 (Human melanoma); test: Calcein AM cytotoxicity assay; conditions: 48h
Method: as §1, §2, §3, §4, §5, §6, §7, §8, §9, §10

[8] = tested on: Human Primary mammary epithelial (HMEC) cells; test: Calcein AM cytotoxicity assay; conditions: 48h
Method: as §1, §2, §3, §4, §5, §6, §7, §8, §9, §10

IOMM-Lee cell line = test: cell cycle distribution analysis by Propidium Iodide (PI) staining; format: cell-based, Human; conditions: 1 μg/mL-500 μg/mL
Method: The evaluation of pro-apoptotic effect of SEQ ID NO. 2 in brain tumor cell lines U251MG & IOMM Lee was conducted. The cells were treated with SEQ ID NO. 2 at various concentrations around IC50 values. Resultant effect on apoptosis was determined via externalization of Phosphatidyl Serine (PS) on cell membrane by Annexin-V staining, mitochondrial membrane depolarization by JC-1 staining and cell cycle distribution analysis by Propidium Iodide (PI) staining. Increase in apoptotic markers in U251MG & IOMM-Lee cell lines reflected the pro-apoptotic potential of SEQ ID NO. 2 in brain tumor. • Externalization of PS on cell membrane by Annexin-V staining on U251MG cell line: SEQ ID NO.

Meningioma (IOMM-Lee) = test: cytotoxicity in Brain Tumor Cell lines by MTT assay; conditions: 72 h

B1: SEQ ID NO. 2: recombinant lectin; variant of the S. rolfsii lectin amino acid sequence (reported as Rec-2 in WO 2010/095143) (protein)
chain: TYKITVRVYQTNPDAFFHPVEKTVWKYANGGTWTITDDQHVLTMGGSGTSGTLRFHADNGESFTATFGVHNYKRWCDIVTNLAADETGMVINQQYYSQKNREEARERQLSNYQVKNAKGRNFQIVYTEAEGNDLHANLIIG
modifications: In vitro synthesis
- % Population of cells, LL Annex− 7AAD− Viable (MDA-MB-231; 2.5 μg/mL): 75.7%
- % Population of cells, LR Annex+ 7AAD− Early apoptotic (MDA-MB-231; 2.5 μg/mL): 7.9%
- % Population of cells, UL Annex− 7AAD+ Necrotic (MDA-MB-231; 2.5 μg/mL): 3.2%
- % Population of cells, UR Annex+ 7AAD+ Late apoptotic (MDA-MB-231; 2.5 μg/mL): 13.2%
- Fold increase (wrt control), LR Annex+ 7-AAD− (MDA-MB-231; 2.5 μg/mL): 15.8 fold
- Fold increase (wrt control), UL Annex− 7-AAD+ (MDA-MB-231; 2.5 μg/mL): 4.6 fold
- Fold increase (wrt control), UR Annex+ 7-AAD+ (MDA-MB-231; 2.5 μg/mL): 22.0 fold
- % Population of cells, LL Annex− 7AAD− Viable (MDA-MB-231; 5 μg/mL): 72.3%
- % Population of cells, LR Annex+ 7AAD− Early apoptotic (MDA-MB-231; 5 μg/mL): 7.0%
- % Population of cells, UL Annex− 7AAD+ Necrotic (MDA-MB-231; 5 μg/mL): 12.5%
- % Population of cells, UR Annex+ 7AAD+ Late apoptotic (MDA-MB-231; 5 μg/mL): 8.2%
- Fold increase (wrt control), LR Annex+ 7-AAD− (MDA-MB-231; 5 μg/mL): 14.0 fold
- Fold increase (wrt control), UL Annex− 7-AAD+ (MDA-MB-231; 5 μg/mL): 17.9 fold
- Fold increase (wrt control), UR Annex+ 7-AAD+ (MDA-MB-231; 5 μg/mL): 13.7 fold
- % Population of cells, LL Annex− 7AAD− Viable (MDA-MB-231; 10 μg/mL): 64.1%
- % Population of cells, LR Annex+ 7AAD− Early apoptotic (MDA-MB-231; 10 μg/mL): 5.8%
- % Population of cells, UL Annex− 7AAD+ Necrotic (MDA-MB-231; 10 μg/mL): 20.6%
- % Population of cells, UR Annex+ 7AAD+ Late apoptotic (MDA-MB-231; 10 μg/mL): 9.5%
- Fold increase (wrt control), LR Annex+ 7-AAD− (MDA-MB-231; 10 μg/mL): 11.6 fold
- Fold increase (wrt control), UL Annex− 7-AAD+ (MDA-MB-231; 10 μg/mL): 29.4 fold
- Fold increase (wrt control), UR Annex+ 7-AAD+ (MDA-MB-231; 10 μg/mL): 15.8 fold
- % Population of cells, LL Annex− 7AAD− Viable (MDA-MB-231; 20 μg/mL): 58.5%
- % Population of cells, LR Annex+ 7AAD− Early apoptotic (MDA-MB-231; 20 μg/mL): 2.9%
- % Population of cells, UL Annex− 7AAD+ Necrotic (MDA-MB-231; 20 μg/mL): 32.7%
- % Population of cells, UR Annex+ 7AAD+ Late apoptotic (MDA-MB-231; 20 μg/mL): 5.9%
- Fold increase (wrt control), LR Annex+ 7-AAD− (MDA-MB-231; 20 μg/mL): 5.8 fold
- Fold increase (wrt control), UL Annex− 7-AAD+ (MDA-MB-231; 20 μg/mL): 46.7 fold
- Fold increase (wrt control), UR Annex+ 7-AAD+ (MDA-MB-231; 20 μg/mL): 9.8 fold
- % Population of cells, LL Annex− 7AAD− Viable (MDA-MB-231; 80 μg/mL): 61.0%
- % Population of cells, LR Annex+ 7AAD− Early apoptotic (MDA-MB-231; 80 μg/mL): 5.3%
- % Population of cells, UL Annex− 7AAD+ Necrotic (MDA-MB-231; 80 μg/mL): 26.0%
- % Population of cells, UR Annex+ 7AAD+ Late apoptotic (MDA-MB-231; 80 μg/mL): 7.7%
- Fold increase (wrt control), LR Annex+ 7-AAD− (MDA-MB-231; 80 μg/mL): 10.6 fold
- Fold increase (wrt control), UL Annex− 7-AAD+ (MDA-MB-231; 80 μg/mL): 37.1 fold
- Fold increase (wrt control), UR Annex+ 7-AAD+ (MDA-MB-231; 80 μg/mL): 12.8 fold
- IC50 [1]: 42.6 µg/mL
- IC50 [2]: >80 µg/mL
- IC50 [3]: 20.3 µg/mL
- IC50 [4]: >80 µg/mL
- IC50 [5]: >80 µg/mL
- IC50 [6]: 42.0 µg/mL
- IC50 [7]: >80 µg/mL
- IC50 [8]: >80 µg/mL
- % Cytotoxicity (PA-1): 72.0%
- increase in apoptotic population; Sub (G0/G1) as compared to Control (Untreated) (IOMM-Lee cell line): 1.1-35.3 fold
- IC50 Value (Meningioma (IOMM-Lee)): 18.37 µg/mL
